Data reported in publication PMC9482650, “Quantitative fragmentomics allow affinity mapping of interactomes” (Nature Communications, 2022).

What follows are binders tested against T1, PDZD7_3, Q9H5P4 (assay: holdup assay). Settings: plain residues with an end cap or a label only (N-terminal biotin on a linker: ado-ado).
T1 sequence (Q9H5P4 857-944, limits assumed, looked up): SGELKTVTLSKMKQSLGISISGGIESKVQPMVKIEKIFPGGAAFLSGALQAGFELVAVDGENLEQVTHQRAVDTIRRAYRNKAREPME
Design: key: below the threshold = too weak to quantify, mostly under pKd 3.1 to 4
With SARSRLSSNL [HCN2, Q9UL51] the pKd was 4.09. With CLREWCDAFL [BANF1, O75531] the pKd was “below the threshold”.

These binders were tested against LIMK2, P53671 (assay: holdup assay). Settings: plain residues with an end cap or a label only (N-terminal biotin on a linker: ado-ado).
LIMK2, P53671, sequence (P53671 143-248): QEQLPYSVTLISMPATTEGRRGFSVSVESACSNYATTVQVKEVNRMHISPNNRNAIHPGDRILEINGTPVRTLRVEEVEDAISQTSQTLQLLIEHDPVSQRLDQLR
Design: key: below the threshold = too weak to quantify, mostly under pKd 3.1 to 4
SARSRLSSNL [HCN2, Q9UL51] was tested, and the pKd was “below the threshold”. With CLREWCDAFL [BANF1, O75531] the pKd was 3.61.

The binders below were run against T2, MPDZ_12, O75970 (assay: holdup assay). Settings: plain residues with an end cap or a label only (N-terminal biotin on a linker: ado-ado).
T2 sequence (O75970 1857-1958, limits assumed, looked up): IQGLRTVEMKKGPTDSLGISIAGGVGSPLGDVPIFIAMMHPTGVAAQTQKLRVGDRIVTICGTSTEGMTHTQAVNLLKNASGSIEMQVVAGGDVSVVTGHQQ
Design: key: below the threshold = too weak to quantify, mostly under pKd 3.1 to 4
With SARSRLSSNL [HCN2, Q9UL51] the pKd was “below the threshold”. CLREWCDAFL [BANF1, O75531] gave a pKd of 3.67.

These binders were tested against T3, APBA2_1, Q99767 (assay: holdup assay). Settings: plain residues with an end cap or a label only (N-terminal biotin on a linker: ado-ado).
T3 sequence (Q99767 563-664, limits assumed, looked up): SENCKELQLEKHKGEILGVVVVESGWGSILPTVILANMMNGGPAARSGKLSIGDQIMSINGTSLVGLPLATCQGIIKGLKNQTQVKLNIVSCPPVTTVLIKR
Design: key: below the threshold = too weak to quantify, mostly under pKd 3.1 to 4
In the case of SARSRLSSNL [HCN2, Q9UL51], the pKd is reported as “below the threshold”. With CLREWCDAFL [BANF1, O75531] the pKd was “below the threshold”.

The binders below were run against Inadl_3, Q8NI35 (assay: holdup assay). Settings: plain residues with an end cap or a label only (N-terminal biotin on a linker: ado-ado).
Inadl_3, Q8NI35, sequence (Q8NI35 359-469): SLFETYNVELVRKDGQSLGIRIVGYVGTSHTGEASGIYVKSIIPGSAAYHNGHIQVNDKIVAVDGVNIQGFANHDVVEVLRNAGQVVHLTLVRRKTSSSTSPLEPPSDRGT
Design: key: below the threshold = too weak to quantify, mostly under pKd 3.1 to 4
In the case of SARSRLSSNL [HCN2, Q9UL51], the pKd is reported as “below the threshold”. With CLREWCDAFL [BANF1, O75531] the pKd was 4.23.

These binders were tested against T4, SNTG1, Q9NSN8 (assay: holdup assay). Settings: plain residues with an end cap or a label only (N-terminal biotin on a linker: ado-ado).
T4 sequence (Q9NSN8 52-150, limits assumed, looked up): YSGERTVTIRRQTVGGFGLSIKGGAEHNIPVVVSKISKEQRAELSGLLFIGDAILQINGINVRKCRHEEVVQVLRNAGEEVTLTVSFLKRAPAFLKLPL
Design: key: below the threshold = too weak to quantify, mostly under pKd 3.1 to 4
For SARSRLSSNL [HCN2, Q9UL51], the pKd was “below the threshold”. In the case of CLREWCDAFL [BANF1, O75531], the pKd is reported as “below the threshold”.

What follows are binders tested against HTRA2, O43464 (assay: holdup assay). Settings: plain residues with an end cap or a label only (N-terminal biotin on a linker: ado-ado).
HTRA2, O43464, sequence (O43464 355-458): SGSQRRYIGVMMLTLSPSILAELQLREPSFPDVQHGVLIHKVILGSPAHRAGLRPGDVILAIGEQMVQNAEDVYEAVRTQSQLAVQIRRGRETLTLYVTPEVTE
Design: key: below the threshold = too weak to quantify, mostly under pKd 3.1 to 4
In the case of SARSRLSSNL [HCN2, Q9UL51], the pKd is reported as “below the threshold”. CLREWCDAFL [BANF1, O75531] was tested, and the pKd was 3.91.

The binders below were run against T5, NHERF3_3, Q5T2W1 (assay: holdup assay). Settings: plain residues with an end cap or a label only (N-terminal biotin on a linker: ado-ado).
T5 sequence (Q5T2W1 238-333, limits assumed, looked up): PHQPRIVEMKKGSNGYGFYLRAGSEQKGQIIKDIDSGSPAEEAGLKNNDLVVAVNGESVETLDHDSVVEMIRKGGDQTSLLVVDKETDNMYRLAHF
Design: key: below the threshold = too weak to quantify, mostly under pKd 3.1 to 4
In the case of SARSRLSSNL [HCN2, Q9UL51], the pKd is reported as “below the threshold”. CLREWCDAFL [BANF1, O75531] was tested, and the pKd was “below the threshold”.

What follows are binders tested against T6, LNX2_2, Q8N448 (assay: holdup assay). Settings: plain residues with an end cap or a label only (N-terminal biotin on a linker: ado-ado).
T6 sequence (Q8N448 334-432, limits assumed, looked up): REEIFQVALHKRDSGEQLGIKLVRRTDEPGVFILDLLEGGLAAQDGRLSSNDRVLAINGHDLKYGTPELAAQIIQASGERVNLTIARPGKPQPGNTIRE
Design: key: below the threshold = too weak to quantify, mostly under pKd 3.1 to 4
SARSRLSSNL [HCN2, Q9UL51] was tested, and the pKd was “below the threshold”. CLREWCDAFL [BANF1, O75531] was tested, and the pKd was “below the threshold”.

What follows are binders tested against ARHGEF12, Q9NZN5-2 (assay: holdup assay). Settings: plain residues with an end cap or a label only (N-terminal biotin on a linker: ado-ado).
ARHGEF12, Q9NZN5-2, sequence (Q9NZN5 other isoform, or with tags, fused parts or gaps): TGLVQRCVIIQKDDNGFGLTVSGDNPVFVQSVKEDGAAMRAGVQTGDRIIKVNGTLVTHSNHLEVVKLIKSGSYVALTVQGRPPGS
Design: key: below the threshold = too weak to quantify, mostly under pKd 3.1 to 4
Binder SARSRLSSNL [HCN2, Q9UL51] has a pKd of 4.66. In the case of CLREWCDAFL [BANF1, O75531], the pKd is reported as “below the threshold”.

The binders below were run against T7, APBA1_2, Q02410 (assay: holdup assay). Settings: plain residues with an end cap or a label only (N-terminal biotin on a linker: ado-ado).
T7 sequence (Q02410 742-832, limits assumed, looked up): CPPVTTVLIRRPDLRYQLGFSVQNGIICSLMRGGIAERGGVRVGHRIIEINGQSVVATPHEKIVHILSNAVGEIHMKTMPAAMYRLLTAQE
Design: key: below the threshold = too weak to quantify, mostly under pKd 3.1 to 4
SARSRLSSNL [HCN2, Q9UL51] was tested, and the pKd was “below the threshold”. In the case of CLREWCDAFL [BANF1, O75531], the pKd is reported as 3.75.

These binders were tested against T8, TIAM2, Q8IVF5 (assay: holdup assay). Settings: plain residues with an end cap or a label only (N-terminal biotin on a linker: ado-ado).
T8 sequence (Q8IVF5 885-986, limits assumed, looked up): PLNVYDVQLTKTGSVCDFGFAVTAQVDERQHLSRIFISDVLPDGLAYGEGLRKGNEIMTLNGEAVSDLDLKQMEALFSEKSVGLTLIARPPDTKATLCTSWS
Design: key: below the threshold = too weak to quantify, mostly under pKd 3.1 to 4
In the case of SARSRLSSNL [HCN2, Q9UL51], the pKd is reported as “below the threshold”. CLREWCDAFL [BANF1, O75531] gave a pKd of 4.05.

These binders were tested against SCRIB_1, Q14160 (assay: holdup assay). Settings: plain residues with an end cap or a label only (N-terminal biotin on a linker: ado-ado).
SCRIB_1, Q14160, sequence (Q14160 718-814): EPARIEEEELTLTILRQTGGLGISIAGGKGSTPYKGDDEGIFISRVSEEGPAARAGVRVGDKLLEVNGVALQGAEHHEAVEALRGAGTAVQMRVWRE
Design: key: below the threshold = too weak to quantify, mostly under pKd 3.1 to 4
Binder SARSRLSSNL [HCN2, Q9UL51] has a pKd of 4.36. With CLREWCDAFL [BANF1, O75531] the pKd was “below the threshold”.

Each binder was assayed against T9, DVL3, Q92997 (assay: holdup assay). Settings: plain residues with an end cap or a label only (N-terminal biotin on a linker: ado-ado).
T9 sequence (Q92997 244-331, limits assumed, looked up): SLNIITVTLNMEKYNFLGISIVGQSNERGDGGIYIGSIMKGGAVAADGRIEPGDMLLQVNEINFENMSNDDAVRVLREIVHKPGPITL
Design: key: below the threshold = too weak to quantify, mostly under pKd 3.1 to 4
For SARSRLSSNL [HCN2, Q9UL51], the pKd was “below the threshold”. CLREWCDAFL [BANF1, O75531] showed a pKd of 3.65.

Each binder was assayed against GRIP2_3, Q9C0E4 (assay: holdup assay). Settings: plain residues with an end cap or a label only (N-terminal biotin on a linker: ado-ado).
GRIP2_3, Q9C0E4, sequence (Q9C0E4 238-339): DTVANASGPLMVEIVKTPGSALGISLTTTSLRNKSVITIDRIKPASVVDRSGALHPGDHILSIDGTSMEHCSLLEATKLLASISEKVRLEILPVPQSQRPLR
Design: key: below the threshold = too weak to quantify, mostly under pKd 3.1 to 4
SARSRLSSNL [HCN2, Q9UL51] was tested, and the pKd was “below the threshold”. With CLREWCDAFL [BANF1, O75531] the pKd was “below the threshold”.

What follows are binders tested against T10, HTRA4, P83105 (assay: holdup assay). Settings: plain residues with an end cap or a label only (N-terminal biotin on a linker: ado-ado).
T10 sequence (P83105 378-476, limits assumed, looked up): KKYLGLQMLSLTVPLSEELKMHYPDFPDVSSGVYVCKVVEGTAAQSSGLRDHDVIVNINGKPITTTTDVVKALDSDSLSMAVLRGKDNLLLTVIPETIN
Design: key: below the threshold = too weak to quantify, mostly under pKd 3.1 to 4
For SARSRLSSNL [HCN2, Q9UL51], the pKd was “below the threshold”. CLREWCDAFL [BANF1, O75531] showed a pKd of 3.64.

The binders below were run against T11, GRIP1_7, Q9Y3R0 (assay: holdup assay). Settings: plain residues with an end cap or a label only (N-terminal biotin on a linker: ado-ado).
T11 sequence (Q9Y3R0 999-1096, limits assumed, looked up): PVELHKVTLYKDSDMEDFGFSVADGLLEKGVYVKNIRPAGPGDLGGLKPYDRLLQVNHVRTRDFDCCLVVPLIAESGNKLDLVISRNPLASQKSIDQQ
Design: key: below the threshold = too weak to quantify, mostly under pKd 3.1 to 4
In the case of SARSRLSSNL [HCN2, Q9UL51], the pKd is reported as “below the threshold”. With CLREWCDAFL [BANF1, O75531] the pKd was “below the threshold”.

What follows are binders tested against T12, ARHGEF11, O15085 (assay: holdup assay). Settings: plain residues with an end cap or a label only (N-terminal biotin on a linker: ado-ado).
T12 sequence (O15085 42-136, limits assumed, looked up): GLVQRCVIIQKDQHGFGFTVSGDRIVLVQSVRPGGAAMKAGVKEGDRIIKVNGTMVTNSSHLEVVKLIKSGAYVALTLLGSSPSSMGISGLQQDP
Design: key: below the threshold = too weak to quantify, mostly under pKd 3.1 to 4
Binder SARSRLSSNL [HCN2, Q9UL51] has a pKd of 3.74. In the case of CLREWCDAFL [BANF1, O75531], the pKd is reported as 3.49.

What follows are binders tested against MAST2, Q6P0Q8 (assay: holdup assay). Settings: plain residues with an end cap or a label only (N-terminal biotin on a linker: ado-ado).
MAST2, Q6P0Q8, sequence (Q6P0Q8 1099-1202): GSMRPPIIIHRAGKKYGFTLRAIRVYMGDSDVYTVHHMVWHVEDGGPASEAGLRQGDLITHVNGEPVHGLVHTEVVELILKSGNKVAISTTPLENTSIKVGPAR
Design: key: below the threshold = too weak to quantify, mostly under pKd 3.1 to 4
With SARSRLSSNL [HCN2, Q9UL51] the pKd was 5.4. CLREWCDAFL [BANF1, O75531] was tested, and the pKd was 5.52.

Each binder was assayed against DLG5_1, Q8TDM6 (assay: holdup assay). Settings: plain residues with an end cap or a label only (N-terminal biotin on a linker: ado-ado).
DLG5_1, Q8TDM6, sequence (Q8TDM6 617-713): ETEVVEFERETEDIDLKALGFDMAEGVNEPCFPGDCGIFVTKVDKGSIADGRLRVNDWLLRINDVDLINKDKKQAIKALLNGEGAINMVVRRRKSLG
Design: key: below the threshold = too weak to quantify, mostly under pKd 3.1 to 4
For SARSRLSSNL [HCN2, Q9UL51], the pKd was “below the threshold”. For CLREWCDAFL [BANF1, O75531], the pKd was “below the threshold”.

These binders were tested against GOPC, Q9HD26 (assay: holdup assay). Settings: plain residues with an end cap or a label only (N-terminal biotin on a linker: ado-ado).
Design: key: below the threshold = too weak to quantify, mostly under pKd 3.1 to 4
SARSRLSSNL [HCN2, Q9UL51] gave a pKd of 3.5. CLREWCDAFL [BANF1, O75531] was tested, and the pKd was “below the threshold”.

The binders below were run against TJP1_2, Q07157 (assay: holdup assay). Settings: plain residues with an end cap or a label only (N-terminal biotin on a linker: ado-ado).
TJP1_2, Q07157, sequence (Q07157 181-274): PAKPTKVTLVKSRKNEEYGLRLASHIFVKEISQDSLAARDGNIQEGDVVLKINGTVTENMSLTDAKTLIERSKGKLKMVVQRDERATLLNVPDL
Design: key: below the threshold = too weak to quantify, mostly under pKd 3.1 to 4
For SARSRLSSNL [HCN2, Q9UL51], the pKd was “below the threshold”. In the case of CLREWCDAFL [BANF1, O75531], the pKd is reported as “below the threshold”.

The binders below were run against T13, MPP2, Q14168 (assay: holdup assay). Settings: plain residues with an end cap or a label only (N-terminal biotin on a linker: ado-ado).
T13 sequence (Q14168 180-250, limits assumed, looked up): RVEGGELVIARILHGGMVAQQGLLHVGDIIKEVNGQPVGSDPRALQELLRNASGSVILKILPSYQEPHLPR
Design: key: below the threshold = too weak to quantify, mostly under pKd 3.1 to 4
For SARSRLSSNL [HCN2, Q9UL51], the pKd was “below the threshold”. CLREWCDAFL [BANF1, O75531] was tested, and the pKd was “below the threshold”.

The binders below were run against T14, MPP7, Q5T2T1 (assay: holdup assay). Settings: plain residues with an end cap or a label only (N-terminal biotin on a linker: ado-ado).
T14 sequence (Q5T2T1 134-230, limits assumed, looked up): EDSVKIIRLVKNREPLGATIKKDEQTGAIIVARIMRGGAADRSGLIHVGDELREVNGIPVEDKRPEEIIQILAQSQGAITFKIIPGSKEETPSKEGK
Design: key: below the threshold = too weak to quantify, mostly under pKd 3.1 to 4
For SARSRLSSNL [HCN2, Q9UL51], the pKd was “below the threshold”. In the case of CLREWCDAFL [BANF1, O75531], the pKd is reported as “below the threshold”.
